Test results from article PMC7919490, “Effect of C-terminus Conjugation via Different Conjugation Chemistries on In Vivo Activity of Albumin-Conjugated Recombinant GLP-1” (Pharmaceutics, 2021).

What was measured:
[1] = biological target: GLP-1 receptor (GLP-1R) (UniProt P43220)
[2] = cited from earlier work
Text: Although GLP-1 exerts significant effects in an individual’s body, its short half-life is a significant drawback. Many studies have been conducted in effort to overcome the hurdles of GLP-1 and to develop it as a medication. Traditional efforts to increase the size of small therapeutic proteins have included polyethylene glycol (PEG) conjugation. […] The in vitro activity of GLP1_8A37C-HSA was greater than that of GLP1_8G37C-HSA, probably due to the alanine to glycine change at position 8 (A8G) affecting the interactions with GLP-1R. […] Despite the low EC50 value of GLP1_ ...

[3] = biological target: T1, GLP-1R (Homo sapiens, UniProt P43220); assay: In vitro activity assay: cAMP production by GLP-1R-overexpressing HEK-293 cells; assay type: cell-based; conditions: HEK293 cells transfected with pcDNA3.1-GLP-1R_tango; 15 min exposure; cAMP Parameter Assay Kit; normalized to cAMP with 1 μM GLP1_C; dose-response fit in OriginPro; n = 3/group
T1 construct: Tango fusion cassette (named only as '_tango' in the plasmid name); host or cells: HEK293 (ATCC), transiently transfected
T1 sequence (P43220 24-463): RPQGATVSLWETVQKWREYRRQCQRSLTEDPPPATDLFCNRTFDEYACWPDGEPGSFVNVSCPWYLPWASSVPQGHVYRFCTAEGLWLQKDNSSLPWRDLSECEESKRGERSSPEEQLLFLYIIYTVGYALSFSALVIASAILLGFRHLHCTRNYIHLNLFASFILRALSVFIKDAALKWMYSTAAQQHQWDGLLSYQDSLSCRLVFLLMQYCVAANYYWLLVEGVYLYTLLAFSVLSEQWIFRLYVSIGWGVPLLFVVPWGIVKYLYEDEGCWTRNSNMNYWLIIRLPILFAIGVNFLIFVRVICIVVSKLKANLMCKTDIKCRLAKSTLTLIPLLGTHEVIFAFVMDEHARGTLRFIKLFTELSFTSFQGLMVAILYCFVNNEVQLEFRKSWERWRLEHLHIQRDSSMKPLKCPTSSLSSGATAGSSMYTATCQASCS
Procedure: The plasmid pcDNA3.1-GLP-1R_tango (Addgene, Cambridge, MA, USA) and transfection reagent were then mixed in serum-free medium for 20 min, in accordance with the manufacturer’s recommendation. […] The levels of cAMP in the cell lysate were measured using the cAMP Parameter Assay Kit following the manufacturer’s protocol. […] The half maximal effective concentrations (EC50) of each curve were estimated from a dose–response curve using OriginPro software. Absorbance at 450 nm was monitored using a Varioskan Lux microplate reader (Thermo Fisher Scientific).

Chain of GLP-1 receptor (GLP-1R) (P43220 24-463): as above

Compound “GLP1_8G37C-HSA (from UniProt P02768 25-609)” has an EC50 of cAMP production by GLP-1R-overexpressing HEK-293 cells [1] of 1340 nM.

“GLP1_8A37C-HSA (from UniProt P02768 25-609)” gave an EC50 of cAMP production by GLP-1R-overexpressing HEK-293 cells [1] of 185 nM.

In the case of `CC[C@H](C)[C@H](NC(=O)[C@H](Cc1ccccc1)NC(=O)[C@H](CCC(=O)O)NC(=O)[C@H](CCCCN)NC(=O)[C@H](C)NC(=O)[C@H](C)NC(=O)[C@H](CCC(N)=O)NC(=O)CNC(=O)[C@H](CCC(=O)O)NC(=O)[C@H](CC(C)C)NC(=O)[C@H](Cc1ccc(O)cc1)NC(=O)[C@H](CO)NC(=O)[C@H](CO)NC(=O)[C@@H](NC(=O)[C@H](CC(=O)O)NC(=O)[C@H](CO)NC(=O)[C@@H](NC(=O)[C@H](Cc1ccccc1)NC(=O)[C@@H](NC(=O)CNC(=O)[C@H](CCC(=O)O)NC(=O)[C@H](C)NC(=O)[C@@H](N)Cc1c[nH]cn1)[C@@H](C)O)[C@@H](C)O)C(C)C)C(=O)N[C@@H](C)C(=O)N[C@@H](Cc1c[nH]c2ccccc12)C(=O)N[C@@H](CC(C)C)C(=O)N[C@H](C(=O)N[C@@H](CCCNC(=N)N)C(=O)NCC(=O)N[C@@H](CCCNC(=N)N)C(=O)NCC(=O)O)C(C)C` [GLP1_C], the plasma half-life ([2]; in animal) is given as “only a few minutes in animal”.

With “GLP1_8A37C-HSA: GLP1-HSA conjugate with alanine at position 8 and albumin at its C-terminus (HAEGTFTSDVSSYLEGQAAKEFIAWLVRGRC; not fully specified; GLP-1(7-37), Ala8 kept, G37C; Cys37 is joined through TET-PEG4-maleimide / TCO-maleimide (IEDDA) to Cys34 of human serum albumin (carrier, UniProt P02768 25-609, not included))” the EC50 [3] was 185 nM.

In the case of Glucagon-like peptide-1 [GLP-1], the “half-life in the body” value ([2]; reported, reference not given) is listed as 2 to 3 min.

For “GLP1_8G37C-HSA: GLP1-HSA conjugate, HSA conjugated to GLP1_8G37C via Michael addition and IEDDA (HGEGTFTSDVSSYLEGQAAKEFIAWLVRGRC; not fully specified; GLP-1(7-37) A8G, G37C; Cys37 is joined through TET-PEG4-maleimide / TCO-maleimide (IEDDA) to Cys34 of human serum albumin (carrier, UniProt P02768 25-609, not included); K34R is inferred from the expe)”, the EC50 [3] was 1340 nM.

Work on “GLP1_8G16AzF-HSA: GLP1-HSA conjugate generated by HSA conjugation to position 16 of GLP-1 via SPAAC (HGEGTFTSDFSSYLEGQAAKEFIAWLVRGRG; not fully specified; GLP-1(7-37) A8G; Residue 16 (entry position 10) is p-azido-L-phenylalanine, written as parent Phe, joined by SPAAC through DBCO-PEG4-maleimide to Cys34 of human serum albumin (carrier, UniProt P02768)” yielded an EC50 [3] of 1120 nM.
